Data: paper PMC4860565, “N6-Methyladenosine: a conformational marker that regulates the substrate specificity of human demethylases FTO and ALKBH5”

Columns and labels:
[1] = target: T1, FTO (Homo sapiens, UniProt Q9C0B1 1-505); test: MST (label-free); 1 mM NiSO4, 500 uM NOG; MST: 50 mM Tris pH 7.5, 150 mM NaCl, 0.05% Tween 20, 25 C; EMSA: 10 mM HEPES pH 7.3, 5% glycerol, 20 mM KCl, 1 mM MgCl2, 1 mM DTT, RNasin, 4 nM RNA, 4 C; conditions: protein: recombinant, tags: His6 (pNIC28-Bsa4)
[2] = target: T2, ALKBH5 (Homo sapiens, UniProt Q6P6C2 66-292); test: MST (label-free); 1 mM MnCl2, NOG presumably as for FTO; MST: 50 mM Tris pH 7.5, 150 mM NaCl, 0.05% Tween 20, 25 C; EMSA: 10 mM HEPES pH 7.3, 5% glycerol, 20 mM KCl, 1 mM MgCl2, 1 mM DTT, RNasin, 4 nM RNA, 4 C; conditions: protein: recombinant, tags: His6 (pNIC28-Bsa4)
[3] = target: T3, YTHDF2 (Homo sapiens, UniProt Q9Y5A9 385-576); test: EMSA; 1 mM MgCl2; up to 5 uM protein; MST: 50 mM Tris pH 7.5, 150 mM NaCl, 0.05% Tween 20, 25 C; EMSA: 10 mM HEPES pH 7.3, 5% glycerol, 20 mM KCl, 1 mM MgCl2, 1 mM DTT, RNasin, 4 nM RNA, 4 C; conditions: protein: recombinant; tags: GST (pGEX-6P-1); label: 3' biotin; random coil single strand
T3 sequence: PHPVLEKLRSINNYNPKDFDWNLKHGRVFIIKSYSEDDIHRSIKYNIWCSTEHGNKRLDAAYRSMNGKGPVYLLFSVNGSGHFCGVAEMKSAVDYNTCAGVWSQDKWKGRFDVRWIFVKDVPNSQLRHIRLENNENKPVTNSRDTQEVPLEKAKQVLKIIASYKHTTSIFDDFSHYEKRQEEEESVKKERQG

[4] = target: T2, ALKBH5; test: EMSA; 1 mM MgCl2; no binding at 1250-fold excess protein (5 uM); MST: 50 mM Tris pH 7.5, 150 mM NaCl, 0.05% Tween 20, 25 C; EMSA: 10 mM HEPES pH 7.3, 5% glycerol, 20 mM KCl, 1 mM MgCl2, 1 mM DTT, RNasin, 4 nM RNA, 4 C; conditions: protein: recombinant; tags: His6 (pNIC28-Bsa4); label: 3' biotin; blunt self-complementary duplex, 2 copies of one strand
[5] = target: T1, FTO; test: as above; conditions: protein: recombinant; tags: His6 (pNIC28-Bsa4); label: 3' biotin; blunt self-complementary duplex, 2 copies of one strand

T2 sequence (Q6P6C2 66-292): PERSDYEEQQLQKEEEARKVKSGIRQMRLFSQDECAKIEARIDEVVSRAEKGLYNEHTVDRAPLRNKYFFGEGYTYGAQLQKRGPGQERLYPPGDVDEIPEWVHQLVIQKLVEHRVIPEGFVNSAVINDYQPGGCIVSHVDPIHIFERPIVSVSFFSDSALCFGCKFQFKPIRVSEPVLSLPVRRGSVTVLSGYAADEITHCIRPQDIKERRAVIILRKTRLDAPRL
T1 sequence (Q9C0B1 whole entry): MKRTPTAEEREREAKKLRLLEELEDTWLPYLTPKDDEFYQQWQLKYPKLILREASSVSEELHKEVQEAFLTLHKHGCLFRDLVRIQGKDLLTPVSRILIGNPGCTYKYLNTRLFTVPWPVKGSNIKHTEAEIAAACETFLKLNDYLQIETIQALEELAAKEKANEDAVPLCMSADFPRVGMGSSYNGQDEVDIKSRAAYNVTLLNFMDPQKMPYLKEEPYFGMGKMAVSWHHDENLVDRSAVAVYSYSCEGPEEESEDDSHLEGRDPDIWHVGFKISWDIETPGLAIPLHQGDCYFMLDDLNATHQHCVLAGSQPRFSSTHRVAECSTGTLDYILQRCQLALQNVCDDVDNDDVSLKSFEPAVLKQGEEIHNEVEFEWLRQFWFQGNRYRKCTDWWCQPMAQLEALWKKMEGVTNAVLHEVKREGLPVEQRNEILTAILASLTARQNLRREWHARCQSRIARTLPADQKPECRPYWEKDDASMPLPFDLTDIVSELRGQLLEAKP

Q: Which Kd ([1]; hairpin) does the source give for GCGGACUCCACCGC (structured_RNA, m6A at position 5) [25] here?
A: 91.3 ± 4.65 µM

Q: What about the Kd ([2]; hairpin) of the same binder?
A: 75.3 ± 2.01 µM

Q: Does GCGGACUCCAGAUG (ssRNA, m6A at position 5) [biotin-11] bind [3]?
A: binds

B1: biotin-15 (dsRNA)
RNA 1: GCGGACUAGUCCGC
RNA 2: GCGGACUAGUCCGC
modifications: m6A at position 5 of each strand
Q: Does B1 bind [4]?
A: no binding

Q: Does B1 bind [5]?
A: no binding

Q: For GCGGACUCCAGAUG (ssRNA, m6A at position 5) [11], which Kd ([1]; random coil single strand) is on record?
A: 97.1 ± 6.66 µM

Q: What about the Kd ([2]; random coil single strand) of the same binder?
A: 52.9 ± 2.21 µM
